± gives the uncertainty stated by the source.
B1: Spectrin alpha chain, erythrocytic 1, residues 979 to 1036; numbered along this chain, P02549 (parent)
chain: EQRVMALYDFQARSPREVTMKKGDVLTLLSSINKDWWKVEAADHQGIVPAVYVRRLAH

Variants of: B1
Test: abundance fitness (aPCA) (normalised: wild type 0, dead -1); higher = more abundant; growth selection in yeast, the domain comes from the species named
Settings: Homo sapiens
EQRVMALYDFQARSPREVTMKKGDVLTLLASINKDWWKVEAADHQGIVPAVYVRRLAH [S30A] showed an abundance fitness of -0.657 ± 0.14.
Work on EQRVMALYDFQARSPREVTMKKGDVLTLLTSINKDWWKVEAADHQGIVPAVYVRRLAH [S30T] yielded an abundance fitness of -0.632 ± 0.22.
EQRVMALYDFQARSPREVTMKKGDVLTLLYSINKDWWKVEAADHQGIVPAVYVRRLAH [S30Y] gave an abundance fitness of -0.108 ± 0.49.
Variant EQRVMALYDFQARSPREVTMKKGDVLTLLVSINKDWWKVEAADHQGIVPAVYVRRLAH [S30V] has an abundance fitness of -0.964 ± 0.28.
EQRVMALYDFQARSPREVTMKKGDVLTLLLSINKDWWKVEAADHQGIVPAVYVRRLAH [S30L] showed an abundance fitness of -1.18 ± 0.29.
With EQRVMALYDFQARSPREVTMKKGDVLTLLCSINKDWWKVEAADHQGIVPAVYVRRLAH [S30C] the abundance fitness was -0.337 ± 0.28.
EQRVMALYDFQARSPREVTMKKGDVLTLLDSINKDWWKVEAADHQGIVPAVYVRRLAH [S30D] gave an abundance fitness of -0.013 ± 0.26.
For EQRVMALYDFQARSPREVTMKKGDVLTLLKSINKDWWKVEAADHQGIVPAVYVRRLAH [S30K], the abundance fitness was -0.322 ± 0.26.
EQRVMALYDFQARSPREVTMKKGDVLTLLGSINKDWWKVEAADHQGIVPAVYVRRLAH [S30G] showed an abundance fitness of -0.041 ± 0.14.
Work on EQRVMALYDFQARSPREVTMKKGDVLTLLMSINKDWWKVEAADHQGIVPAVYVRRLAH [S30M] yielded an abundance fitness of -0.463 ± 0.32.
Variant EQRVMALYDFQARSPREVTMKKGDVLTLLESINKDWWKVEAADHQGIVPAVYVRRLAH [S30E] has an abundance fitness of -0.066 ± 0.094.
For EQRVMALYDFQARSPREVTMKKGDVLTLLSSINKNWWKVEAADHQGIVPAVYVRRLAH [D35N], the abundance fitness was -0.182 ± 0.24.
For EQRVMALYDFQARSPREVTMKKGDVLTLLSSINKTWWKVEAADHQGIVPAVYVRRLAH [D35T], the abundance fitness was -0.506 ± 0.27.
Work on EQRVMALYDFQARSPREVTMKKGDVLTLLSSINKKWWKVEAADHQGIVPAVYVRRLAH [D35K] yielded an abundance fitness of -0.027 ± 0.16.
With EQRVMALYDFQARSPREVTMKKGDVLTLLSSINKEWWKVEAADHQGIVPAVYVRRLAH [D35E] the abundance fitness was -0.364 ± 0.26.
EQRVMALYDFQARSPREVTMKKGDVLTLLSSINKMWWKVEAADHQGIVPAVYVRRLAH [D35M] gave an abundance fitness of -0.535 ± 0.26.
Variant EQRVMALYDFQARSPREVTMKKGDVLTLLSSINKRWWKVEAADHQGIVPAVYVRRLAH [D35R] has an abundance fitness of -0.326 ± 0.2.
Work on EQRVMALYDFQARSPREVTMKKGDVLTLLSSINKSWWKVEAADHQGIVPAVYVRRLAH [D35S] yielded an abundance fitness of -0.006 ± 0.18.
With EQRVMALYDFQARSPREVTMKKGDVLTLLSSINKAWWKVEAADHQGIVPAVYVRRLAH [D35A] the abundance fitness was -0.541 ± 0.096.
With EQRVMALYDFQARSPREVTMKKGDVLTLLSSINKPWWKVEAADHQGIVPAVYVRRLAH [D35P] the abundance fitness was -0.867 ± 0.42.
With EQRVMALYDFQARSPREVTMKKGDVLTLLSSINKVWWKVEAADHQGIVPAVYVRRLAH [D35V] the abundance fitness was -0.037 ± 0.14.
Work on EQRVMALYDFQARSPREVTMKKGDVLTLLSSINKQWWKVEAADHQGIVPAVYVRRLAH [D35Q] yielded an abundance fitness of -0.697 ± 0.31.
Variant EQRVMALYDFQARSPREVTMKKGDVLTLLSSINKLWWKVEAADHQGIVPAVYVRRLAH [D35L] has an abundance fitness of -0.685 ± 0.098.
Variant EQRVMALYDFQARSPREVTMKKGDVLTLLSSWNKDWWKVEAADHQGIVPAVYVRRLAH [I32W] has an abundance fitness of 1.06 ± 0.31.
With EQRVMALYDFQARSPREVTMKKGDVLTLLSYINKDWWKVEAADHQGIVPAVYVRRLAH [S31Y] the abundance fitness was -0.252 ± 0.17.
For EQRVMALYDFQARSPREVTMKKGDVLTLLSLINKDWWKVEAADHQGIVPAVYVRRLAH [S31L], the abundance fitness was -0.38 ± 0.21.
Variant EQRVMALYDFQARSPREVTMKKGDVLTLLSVINKDWWKVEAADHQGIVPAVYVRRLAH [S31V] has an abundance fitness of 0.437 ± 0.098.
Work on EQRVMALYDFQARSPREVTMKKGDVLTLLSKINKDWWKVEAADHQGIVPAVYVRRLAH [S31K] yielded an abundance fitness of -0.179 ± 0.27.
In the case of EQRVMALYDFQARSPREVTMKKGDVLTLLSDINKDWWKVEAADHQGIVPAVYVRRLAH [S31D], the abundance fitness is reported as 0.673 ± 0.16.
Work on EQRVMALYDFQARSPREVTMKKGDVLTLLSIINKDWWKVEAADHQGIVPAVYVRRLAH [S31I] yielded an abundance fitness of 0.495 ± 0.26.
EQRVMALYDFQARSPREVTMKKGDVLTLLSRINKDWWKVEAADHQGIVPAVYVRRLAH [S31R] gave an abundance fitness of -0.282 ± 0.082.
EQRVMALYDFQARSPREVTMKKGDVLTLLSCINKDWWKVEAADHQGIVPAVYVRRLAH [S31C] gave an abundance fitness of -0.157 ± 0.23.
For EQRVMALYDFQARSPREVTMKKGDVLTLLSNINKDWWKVEAADHQGIVPAVYVRRLAH [S31N], the abundance fitness was -0.224 ± 0.5.
With EQRVMALYDFQARSPREVTMKKGDVLTLLSFINKDWWKVEAADHQGIVPAVYVRRLAH [S31F] the abundance fitness was -0.47 ± 0.098.
EQRVMALYDFQARSPREVTMKKGDVLTLLSGINKDWWKVEAADHQGIVPAVYVRRLAH [S31G] showed an abundance fitness of -0.34 ± 0.11.
With EQRVMALYDFQARSPREVTMKKGDVLTLLSWINKDWWKVEAADHQGIVPAVYVRRLAH [S31W] the abundance fitness was -0.814 ± 0.12.
For EQRVMALYDFQARSPREVTMKKGDVLTLLSAINKDWWKVEAADHQGIVPAVYVRRLAH [S31A], the abundance fitness was 0.092 ± 0.06.
EQRVMALYDFQARSPREVTMKKGDVLTLLSMINKDWWKVEAADHQGIVPAVYVRRLAH [S31M] showed an abundance fitness of -0.04 ± 0.22.
For EQRVMALYDFQARSPREVTMKKGDVLTLLSEINKDWWKVEAADHQGIVPAVYVRRLAH [S31E], the abundance fitness was 0.518 ± 0.13.
With EQRVMALYDFQARSPREVTMKKGDVLTLLSQINKDWWKVEAADHQGIVPAVYVRRLAH [S31Q] the abundance fitness was 0.225 ± 0.17.
EQRVMALYDFQARSPREVTMKKGDVLTLSSSINKDWWKVEAADHQGIVPAVYVRRLAH [L29S] showed an abundance fitness of -0.134 ± 0.2.
EQRVMALYDFQARSPREVTMKKGDVLTLMSSINKDWWKVEAADHQGIVPAVYVRRLAH [L29M] gave an abundance fitness of -0.582 ± 0.16.
For EQRVMALYDFQARSPREVTMKKGDVLTLKSSINKDWWKVEAADHQGIVPAVYVRRLAH [L29K], the abundance fitness was 0.119 ± 0.11.
In the case of EQRVMALYDFQARSPREVTMKKGDVLTLISSINKDWWKVEAADHQGIVPAVYVRRLAH [L29I], the abundance fitness is reported as -0.266 ± 0.4.
EQRVMALYDFQARSPREVTMKKGDVLTLWSSINKDWWKVEAADHQGIVPAVYVRRLAH [L29W] gave an abundance fitness of -0.111 ± 0.26.

Source: the Human Domainome abundance scans (Beltran et al. 2025)
